T1: human FcγRIIaH extracellular domain, His-tagged (human, UniProt P12318 34-217)
T1 construct: also called human FcgRIIaH; FcγRIIa type H
T1 sequence: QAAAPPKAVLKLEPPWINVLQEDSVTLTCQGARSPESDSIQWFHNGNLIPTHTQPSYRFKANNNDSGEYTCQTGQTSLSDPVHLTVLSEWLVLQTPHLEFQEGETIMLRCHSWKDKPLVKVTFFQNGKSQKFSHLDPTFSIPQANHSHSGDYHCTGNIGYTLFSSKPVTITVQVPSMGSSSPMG

T2: human FcγRIIb extracellular domain, His-tagged (human, UniProt P31994 43-217)
T2 construct: also called human FcgRIIb
T2 sequence: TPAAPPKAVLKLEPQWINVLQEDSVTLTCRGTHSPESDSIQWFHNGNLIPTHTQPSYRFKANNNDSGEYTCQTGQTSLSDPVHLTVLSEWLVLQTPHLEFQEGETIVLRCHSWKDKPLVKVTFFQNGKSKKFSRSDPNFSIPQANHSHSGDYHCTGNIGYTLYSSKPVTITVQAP

T3: human FcγRIIaH extracellular domain with C-terminal His-tag (human, UniProt P12318 34-217)
T3 construct: also called human FcgRIIaH; FcγRIIa type H; not shown: His-tag added to the C-terminus
T3 sequence: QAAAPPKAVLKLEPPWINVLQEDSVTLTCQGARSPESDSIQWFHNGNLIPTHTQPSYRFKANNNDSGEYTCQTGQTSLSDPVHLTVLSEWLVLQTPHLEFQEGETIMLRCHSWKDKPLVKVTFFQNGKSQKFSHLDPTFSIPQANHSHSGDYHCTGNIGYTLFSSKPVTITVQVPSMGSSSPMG

T4: cynomolgus monkey FcγRIIa3 extracellular domain with C-terminal His-tag (cynomolgus monkey)
T4 construct: also called cyno FcgRIIa3; cynoFcγRIIa3; not shown: His-tag added to the C-terminus
T4 chain: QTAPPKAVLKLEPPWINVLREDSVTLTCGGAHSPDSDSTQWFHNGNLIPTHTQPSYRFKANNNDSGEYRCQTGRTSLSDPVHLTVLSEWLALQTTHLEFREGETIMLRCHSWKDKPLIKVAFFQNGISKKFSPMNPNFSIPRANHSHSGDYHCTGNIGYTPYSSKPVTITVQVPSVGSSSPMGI

T5: human FcγRIIaR extracellular domain with C-terminal His-tag (human, UniProt P12318 34-217)
T5 construct: also called human FcgRIIaR; FcγRIIa type R; not shown: His-tag added to the C-terminus
T5 chain: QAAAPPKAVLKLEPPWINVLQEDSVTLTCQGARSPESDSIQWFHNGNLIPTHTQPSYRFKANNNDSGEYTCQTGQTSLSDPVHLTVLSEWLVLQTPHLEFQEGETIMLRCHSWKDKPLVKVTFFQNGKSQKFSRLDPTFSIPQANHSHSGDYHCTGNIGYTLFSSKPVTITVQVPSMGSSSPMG

T6: cynomolgus monkey FcγRIIa2 extracellular domain with C-terminal His-tag (cynomolgus monkey)
T6 construct: also called cyno FcgRIIa2; cynoFcγRIIa2; not shown: His-tag added to C-terminus
T6 chain: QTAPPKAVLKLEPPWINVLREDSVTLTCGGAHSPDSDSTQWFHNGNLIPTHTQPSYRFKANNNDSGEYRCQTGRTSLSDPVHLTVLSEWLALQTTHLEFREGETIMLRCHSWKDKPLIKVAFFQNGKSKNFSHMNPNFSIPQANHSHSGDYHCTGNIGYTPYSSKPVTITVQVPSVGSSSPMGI


Legend:
[1] = target: T1, human FcγRIIaH extracellular domain, …; test: SPR (Biacore), 25C, FcgR bound per antibody captured
[2] = target: T7, human FcγRIIIaV extracellular domain, His-tagged (human, UniProt P08637 17-208); test: as above
T7 construct: also called human FcgRIIIaV

[3] = target: T2, human FcγRIIb extracellular domain, …; test: as above
[4] = target: T3, human FcγRIIaH extracellular domain …; test: SPR (BIACORE), antibody captured, FcgR analyte
[5] = target: T4, cynomolgus monkey FcγRIIa3 …; test: SPR (BIACORE), antibody captured, FcgR analyte
[6] = target: T8, cynomolgus monkey FcγRIIIaS extracellular domain with C-terminal His-tag (cynomolgus monkey, UniProt A3RFZ7 21-206 (rhesus entry)); test: SPR (BIACORE), antibody captured, FcgR analyte
T8 construct: also called cyno FcgRIIIaS; cynoFcγRIIIaS; not shown: His-tag added to the C-terminus
Target sequence in this assay (A3RFZ7 21-206): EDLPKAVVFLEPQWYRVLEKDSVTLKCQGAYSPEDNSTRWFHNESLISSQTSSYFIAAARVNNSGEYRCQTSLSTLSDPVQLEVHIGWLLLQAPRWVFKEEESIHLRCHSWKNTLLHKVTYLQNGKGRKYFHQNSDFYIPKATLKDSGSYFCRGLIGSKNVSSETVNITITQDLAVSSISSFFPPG

[7] = target: T8, cynomolgus monkey FcγRIIIaS …; test: SPR (BIACORE); KD of SG1 / KD of variant
Description: The kinetic analysis of interactions between these antibodies and FcγR was carried out using BIACORE® T200 or BIACORE® 4000 (GE Healthcare). HBS-EP+ (GE Healthcare) was used as the running buffer, and the measurement temperature was set to 25° C. […] After the measurement, the antibody captured on the chip was washed off by allowing reaction with 10 mM glycine-HCl, pH1.5 and 25 mM NaOH so that the chip was regenerated and used repeatedly. The sensorgrams obtained as measurement results were analyzed by the 1:1 Langmuir binding model using the BIACORE® Evaluation Software to calculate the binding rate constant ka (L/mol/s) and dissociation rate constant kd (1/s), and the dissociation constant KD (mol/L) was calculated from these values. […] Regarding such interactions, KD values were calculated using the following 1:1 binding model described in BIACORE® T100 Software Handbook BR1006-48 Edition AE.
T8 sequence (A3RFZ7 21-206): as above

[8] = target: T5, human FcγRIIaR extracellular domain …; test: SPR (BIACORE), antibody captured, FcgR analyte
[9] = target: T6, cynomolgus monkey FcγRIIa2 …; test: SPR Biacore, antibody captured, FcgR analyte
[10] = target: T9, cynomolgus monkey FcγRIIIaS extracellular domain with C-terminal His-tag (cynomolgus monkey, UniProt A3RFZ7 21-206 (rhesus entry)); test: SPR Biacore, antibody captured, FcgR analyte
T9 construct: also called cyno FcgRIIIaS; cynoFcγRIIIaS; not shown: His-tag added to C-terminus

T7 sequence (P08637 17-208 F176V): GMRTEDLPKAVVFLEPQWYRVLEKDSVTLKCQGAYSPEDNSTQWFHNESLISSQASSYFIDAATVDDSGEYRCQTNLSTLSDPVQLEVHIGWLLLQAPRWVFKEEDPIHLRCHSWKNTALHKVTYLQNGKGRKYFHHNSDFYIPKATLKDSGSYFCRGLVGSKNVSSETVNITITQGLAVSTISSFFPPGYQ

Kd [4] [nM] | Kd [5] [nM] | Kd [6] [nM] | KD fold (SG1 = 1) [9] [fold] | KD fold (SG1 = 1) [10] [fold] | Binder | also measured
– | – | – | – | – | GpH7-B3 S239P / GpL16-k0 (antibody, human IgG1, kappa, also called B3 variant S239P) heavy: not shown light: DIVMTQSPLSLPVTPGEPASISCQASESLVHSNRNTYLHWYLQKPGQSPQLLIYKVSNRFSGVPDRFSGSGSGTDFTLKISRVEAEDVGVYYCSQNTHVPPTFGQGTKVEIERTVAAPSVFIFPPSDEQLKSGTASVVCLLNNFYPREAKVQWKVDNALQSGNSQESVTEQDSKDSTYSLSSTLTLSKADYEKHKVYACEVTHQGLSSPVTKSFNRGEC | Binding to human FcgRs (parent B3 = 100) [1]: 49; Binding to human FcgRs (parent B3 = 100) [2]: -1; Binding to human FcgRs (parent B3 = 100) [3]: 61
160 | 1400 | 2100 | – | – | M103205H795-MY197/M103202L889-SK1 (antibody, human IgG1, kappa, name in EU numbering, Fc variant of MS1032LO06-SG1; positions in EU numbering) heavy: QVTLKESGPVLVKPTETLTLTCTVSGIDLSHDDISWVRQAPGKGLEWVGIISYAGSTYYASWAKGRLTISKDTSKNQVVLTMTNMDPVDTATYYCARGVPAYSHGGDLWGQGTLVTVSSASTKGPSVFPLAPSSKSTSGGTAALGCLVKDYFPEPVTVSWNSGALTSGVHTFPAVLQSSGLYSLSSVVTVPSSSLGTQTYICNVNHKPSNTKVDKKVEPKSCDKTHTCPPCPAPELLNGPSVFLFPPKPKDTLMISRTPEVTCVVVDVSDEDPEVKFNWYVDGVEVHNAKTKPREEQYNSTYRVVSVLTVLHQDWLNGKEYKCKVSNKALPKPIEKTISKAKGQPREPQVYTLPPSREEMTKNQVSLTCLVKGFYPSDIAVEWESNGQPENNYKTTPMVLDSDGSFFLYSKLTVDKSRWQQGNVFSCSVMHEALHNHYTQKSLSLSP light: DIVMTQSPATLSLSPGERATLSCTSSQSVYHANWLSWFQQKPGQPPKLLIYWASTLAYGVPSRFSGSGSGTDFTLTISSLQPEDAATYYCAGGYGGGRYAFGQGTKVEIKRTVAAPSVFIFPPSDEQLKSGTASVVCLLNNFYPREAKVQWKVDNALQSGNSQESVTEQDSKDSTYSLSSTLTLSKADYEKHKVYACEVTHQGLSSPVTKSFNRGEC | KD fold (SG1 = 1) [7]: 0.17 fold
1600 | 6400 | 11000 | – | – | M103205H795-MY434/M103202L889-SK1 (antibody, human IgG1, kappa, name in EU numbering, Fc variant of MS1032LO06-SG1; positions in EU numbering) heavy: QVTLKESGPVLVKPTETLTLTCTVSGIDLSHDDISWVRQAPGKGLEWVGIISYAGSTYYASWAKGRLTISKDTSKNQVVLTMTNMDPVDTATYYCARGVPAYSHGGDLWGQGTLVTVSSASTKGPSVFPLAPSSKSTSGGTAALGCLVKDYFPEPVTVSWNSGALTSGVHTFPAVLQSSGLYSLSSVVTVPSSSLGTQTYICNVNHKPSNTKVDKKVEPKSCDKTHTCPPCPAPELWNGPSVFLFPPKPKDTLMISRTPEVTCVVVDVSDEDPEVKFNWYVDGVEVHNAKTKPREEQYNSTYRVVSVLTVLHQDWLNGKEYKCKVSNKALPKPIEKTISKAKGQPREPQVYTLPPSREEMTKNQVSLTCLVKGFYPSDIAVEWESNGQPENNYKTTPPVLDSDGSFFLYSKLTVDKSRWQQGNVFSCSVMHEALHNHYTQKSLSLSP light: DIVMTQSPATLSLSPGERATLSCTSSQSVYHANWLSWFQQKPGQPPKLLIYWASTLAYGVPSRFSGSGSGTDFTLTISSLQPEDAATYYCAGGYGGGRYAFGQGTKVEIKRTVAAPSVFIFPPSDEQLKSGTASVVCLLNNFYPREAKVQWKVDNALQSGNSQESVTEQDSKDSTYSLSSTLTLSKADYEKHKVYACEVTHQGLSSPVTKSFNRGEC | Kd [8]: 19 nM
– | – | – | 3.6 | 0.09 | M103205H795-MY207/M103202L889-SK1 (antibody, human IgG1, kappa, name in EU numbering, substitutions in EU numbering, introduced into M103205H795-SG1) heavy: not shown light: DIVMTQSPATLSLSPGERATLSCTSSQSVYHANWLSWFQQKPGQPPKLLIYWASTLAYGVPSRFSGSGSGTDFTLTISSLQPEDAATYYCAGGYGGGRYAFGQGTKVEIKRTVAAPSVFIFPPSDEQLKSGTASVVCLLNNFYPREAKVQWKVDNALQSGNSQESVTEQDSKDSTYSLSSTLTLSKADYEKHKVYACEVTHQGLSSPVTKSFNRGEC | –
– | – | – | 3.4 | 0.13 | M103205H795-MY208/M103202L889-SK1 (antibody, human IgG1, kappa, name in EU numbering, substitutions in EU numbering, introduced into M103205H795-SG1) heavy: QVTLKESGPVLVKPTETLTLTCTVSGIDLSHDDISWVRQAPGKGLEWVGIISYAGSTYYASWAKGRLTISKDTSKNQVVLTMTNMDPVDTATYYCARGVPAYSHGGDLWGQGTLVTVSSASTKGPSVFPLAPSSKSTSGGTAALGCLVKDYFPEPVTVSWNSGALTSGVHTFPAVLQSSGLYSLSSVVTVPSSSLGTQTYICNVNHKPSNTKVDKKVEPKSCDKTHTCPPCPAPELLNGPSVFLFPPKPKDTLMISRTPEVTCVVVDVSDEDPEVKFNWYVDGVEVHNAKTKPREELYNSTYRVVSVLTVLHQDWLNGKEYKCKVSNKALPAPIEKTISKAKGQPREPQVYTLPPSREEMTKNQVSLTCLVKGFYPSDIAVEWESNGQPENNYKTTPPVLDSDGSFFLYSKLTVDKSRWQQGNVFSCSVMHEALHNHYTQKSLSLSP light: DIVMTQSPATLSLSPGERATLSCTSSQSVYHANWLSWFQQKPGQPPKLLIYWASTLAYGVPSRFSGSGSGTDFTLTISSLQPEDAATYYCAGGYGGGRYAFGQGTKVEIKRTVAAPSVFIFPPSDEQLKSGTASVVCLLNNFYPREAKVQWKVDNALQSGNSQESVTEQDSKDSTYSLSSTLTLSKADYEKHKVYACEVTHQGLSSPVTKSFNRGEC | –
1200 | 2200 | 4000 | – | – | M103205H795-MY202/M103202L889-SK1 (antibody, human IgG1, kappa, name in EU numbering, Fc variant of MS1032LO06-SG1; positions in EU numbering) heavy: QVTLKESGPVLVKPTETLTLTCTVSGIDLSHDDISWVRQAPGKGLEWVGIISYAGSTYYASWAKGRLTISKDTSKNQVVLTMTNMDPVDTATYYCARGVPAYSHGGDLWGQGTLVTVSSASTKGPSVFPLAPSSKSTSGGTAALGCLVKDYFPEPVTVSWNSGALTSGVHTFPAVLQSSGLYSLSSVVTVPSSSLGTQTYICNVNHKPSNTKVDKKVEPKSCDKTHTCPPCPAPELLNGPVVFLFPPKPKDTLMISRTPEVTCVVVDVSDEDPEVKFNWYVDGVEVHNAKTKPREEQYNSTYRVVSVLTVLHQDWLNGKEYKCKVSNKALPKPIEKTISKAKGQPREPQVYTLPPSREEMTKNQVSLTCLVKGFYPSDIAVEWESNGQPENNYKTTPPVLDSDGSFFLYSKLTVDKSRWQQGNVFSCSVMHEALHNHYTQKSLSLSP light: DIVMTQSPATLSLSPGERATLSCTSSQSVYHANWLSWFQQKPGQPPKLLIYWASTLAYGVPSRFSGSGSGTDFTLTISSLQPEDAATYYCAGGYGGGRYAFGQGTKVEIKRTVAAPSVFIFPPSDEQLKSGTASVVCLLNNFYPREAKVQWKVDNALQSGNSQESVTEQDSKDSTYSLSSTLTLSKADYEKHKVYACEVTHQGLSSPVTKSFNRGEC | –

From patent US20250076311A1 (Chugai, published 2025)
